Reference: patent US20190134606A1

Molecular target: Fab fragment derived from the humanized anti-IgE monoclonal IgG omalizumab ("Xolair", Novartis), made by papain digestion
Assay: column breakthrough, 1 mg/mL Fab, HiTrap Protein L column, ligand density 10 mg/mL-gel from the manual

55% DBC: 21.7 mg/mL-gel
Substance: Protein L ligand of the commercially available Protein L carrier ("HiTrap Protein L" manufactured by GE Healthcare)
